Experimental data from patent publication US20210396761A1 (AICURIS, published 2021).

Experiments:
[1] = target: T1, EBV BFLF2, C-terminally fused to the Flag epitope (pcDNA-BFLF2-Flag, pHM4698) (Epstein-Barr virus (EBV) strain B95-8, UniProt P0CK47 1-318); assay: coimmunoprecipitation, transiently transfected 293T cells
T1 construct: also called Flag-tagged BFLF2
T1 sequence: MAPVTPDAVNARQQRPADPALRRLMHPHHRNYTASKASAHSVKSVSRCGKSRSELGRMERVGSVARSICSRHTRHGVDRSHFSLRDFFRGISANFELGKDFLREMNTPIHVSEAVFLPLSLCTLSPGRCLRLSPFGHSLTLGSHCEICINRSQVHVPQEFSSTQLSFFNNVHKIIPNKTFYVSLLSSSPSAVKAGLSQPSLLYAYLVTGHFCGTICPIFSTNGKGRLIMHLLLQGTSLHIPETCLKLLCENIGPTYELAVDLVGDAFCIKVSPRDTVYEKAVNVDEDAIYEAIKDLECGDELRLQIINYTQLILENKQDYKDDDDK

[2] = target: the molecule itself; assay: analytical size exclusion chromatography (Superdex 75 10/300)
pUL53 (50-292) = target: T2, pUL53 (50-292) (human cytomegalovirus (HCMV) strain …, UniProt P16794 50-292); assay: analytical size exclusion chromatography, coproduced in E. coli and also mixed in vitro
T2 sequence: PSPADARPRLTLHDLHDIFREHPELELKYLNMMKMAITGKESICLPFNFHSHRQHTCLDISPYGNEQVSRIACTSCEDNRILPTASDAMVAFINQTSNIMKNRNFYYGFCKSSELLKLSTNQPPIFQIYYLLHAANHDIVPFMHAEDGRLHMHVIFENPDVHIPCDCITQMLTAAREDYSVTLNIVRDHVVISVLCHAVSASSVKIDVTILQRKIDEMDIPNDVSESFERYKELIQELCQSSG

[3] = target: T3, VZV Orf24, C-terminally fused to the HA epitope (pcDNA-Orf24-HA, pHM4695) (varicella zoster virus (VZV) strain …, UniProt P09280 1-269); assay: coimmunoprecipitation, transiently transfected 293T cells
T3 sequence: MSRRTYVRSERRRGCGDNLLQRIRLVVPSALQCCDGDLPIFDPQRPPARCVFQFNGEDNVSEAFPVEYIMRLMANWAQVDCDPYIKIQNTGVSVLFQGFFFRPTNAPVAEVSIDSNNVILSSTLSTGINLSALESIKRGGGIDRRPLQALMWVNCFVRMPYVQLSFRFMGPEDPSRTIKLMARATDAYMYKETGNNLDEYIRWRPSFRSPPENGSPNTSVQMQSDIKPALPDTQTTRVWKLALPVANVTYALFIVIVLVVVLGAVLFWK

[4] = target: T4, HCMV pUL50, C-terminally fused to the HA epitope (pcDNA-UL50-HA, pHM2589) (human cytomegalovirus (HCMV) strain …, UniProt P16791 1-397); assay: as above
T4 sequence: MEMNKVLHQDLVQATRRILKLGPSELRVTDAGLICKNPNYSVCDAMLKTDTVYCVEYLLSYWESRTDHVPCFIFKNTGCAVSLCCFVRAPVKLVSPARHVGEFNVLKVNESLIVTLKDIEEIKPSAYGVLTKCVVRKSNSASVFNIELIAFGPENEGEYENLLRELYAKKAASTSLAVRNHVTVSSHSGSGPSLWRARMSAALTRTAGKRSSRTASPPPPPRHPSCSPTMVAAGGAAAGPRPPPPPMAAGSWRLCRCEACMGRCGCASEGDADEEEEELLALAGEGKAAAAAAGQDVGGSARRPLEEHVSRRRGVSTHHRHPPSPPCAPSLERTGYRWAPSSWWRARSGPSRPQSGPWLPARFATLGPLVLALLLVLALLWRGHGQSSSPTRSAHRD

B1: MCMV pM50, C-terminally fused to the HA epitope (pcDNA-M50-HA, pHM4717) (other)
chain: MEIDKNVGADLISNTRRILRLDENELRITDTALICKNPNYSLCDAMLTTDIVYPVEYLLSYWECRSGRTACFVFKNTGCRVSLSCYIGFPERLKDLKRVCDFNFLSVNEALVVTLADIERIKPCDKGVLTNCVVRKSNSGMSYNIEVVAFGPDNEAEYQALLRDIYARRMTSVPTDCGSLICRRARCLAAAPPRRPPPPPPPGQRWGSLRKHGPVLTRRYAGGGGAAKNQPAAASPTSTSTSSPAAPSRDQDQTQRPPPAGDTNVTAAETTYSERTISFLTRHANAIHCALILAAAIALVLLWLLYWHAARSAGHP
notes: also called pM50-HA; HA-tagged pM50
binding result [1]: no binding

B2: pUL50 (1-181) (other)
chain: MEMNKVLHQDLVQATRRILKLGPSELRVTDAGLICKNPNYSVCDAMLKTDTVYCVEYLLSYWESRTDHVPCFIFKNTGCAVSLCCFVRAPVKLVSPARHVGEFNVLKVNESLIVTLKDIEEIKPSAYGVLTKCVVRKSNSASVFNIELIAFGPENEGEYENLLRELYAKKAASTSLAVRNH
binding result [2]: no binding | binding result (pUL53 (50-292)): binds

B3: MCMV pM53, C-terminally fused to the Flag epitope (pcDNA-M53-Flag, pHM4718) (other)
chain: MFRSPEGEERDAADREEEEGGEARRRSRMMMSPRRVKRARHRPAGSGLRTPLRSPSACRCSSPSPERQWQQRRRAEKRSTTPTDPPPPPKRSAASAAAGAAAPESEYLNVKLSELHDVFQRHPDLEQKYLKIMKLPITGKESIRLPFDFKSHRQHTCLDLSPYGNDQVSRSACTTCKETTRLPTASDSMVAFINQTSNVMKHRKFYFGFRKNMELLKMAANQPQLFQIYYIVQSCVQEIVPLIYYDREMAHMQLIFEKETVHIPSQCIEQILTVAKDAYGVSLDIAHQRITLTARCLRLESSSLRIDVLMLQRKVDELEIPNETNEKFESYSLDYKDDDDK
notes: also called pM53-Flag; Flag-tagged pM53
binding result [3]: no binding | binding result [4]: binds
